Data taken from patent publication US20190015483A1 (CSL BEHRING RECOMBINANT FACILITY, published 2019).

B1: Hu-vWF[764-1270]-8His S766Y-K773P (other)
chain: SLYCRPPMVPLVCPADNLRAEGLECTKTCQNYDLECMSMGCVSGCLCPPGMVRHENRCVALERCPCFHQGKEYAPGETVKIGCNTCVCRDRKWNCTDHVCDATCSTIGMAHYLTFDGLKYLFPGECQYVLVQDYCGSNPGTFRILVGNKGCSHPSVKCKKRVTILVEGGEIELFDGEVNVKRPMKDETHFEVVESGRYIILLLGKALSVVWDRHLSISVVLKQTYQEKVCGLCGNFDGIQNNDLTSSNLQVEEDPVDFGNSWKVSSQCADTRKVPLDSSPATCHNNIMKQTMVDSSCRILTSDVFQDCNKLVDPEPYLDVCIYDTCSCESIGDCACFCDTIAAYAHVCAQHGKVVTWRTATLCPQSCEERNLRENGYECEWRYNSCAPACQVTCQHPEPLACPVQCVEGCHAHCPPGKILDELLQTCVDPEDCPVCEVAGRRFASGKKVTLNPSDPEHCQICHCDVVNLTCEACQEPGGLVVPPTDAPVSPTTLYVEDISEPPLHDFHHHHHHHH
B2: Hu-vWF[764-1270]-8His S766Y-K773S (other)
chain: SLYCRPPMVSLVCPADNLRAEGLECTKTCQNYDLECMSMGCVSGCLCPPGMVRHENRCVALERCPCFHQGKEYAPGETVKIGCNTCVCRDRKWNCTDHVCDATCSTIGMAHYLTFDGLKYLFPGECQYVLVQDYCGSNPGTFRILVGNKGCSHPSVKCKKRVTILVEGGEIELFDGEVNVKRPMKDETHFEVVESGRYIILLLGKALSVVWDRHLSISVVLKQTYQEKVCGLCGNFDGIQNNDLTSSNLQVEEDPVDFGNSWKVSSQCADTRKVPLDSSPATCHNNIMKQTMVDSSCRILTSDVFQDCNKLVDPEPYLDVCIYDTCSCESIGDCACFCDTIAAYAHVCAQHGKVVTWRTATLCPQSCEERNLRENGYECEWRYNSCAPACQVTCQHPEPLACPVQCVEGCHAHCPPGKILDELLQTCVDPEDCPVCEVAGRRFASGKKVTLNPSDPEHCQICHCDVVNLTCEACQEPGGLVVPPTDAPVSPTTLYVEDISEPPLHDFHHHHHHHH
B3: Hu-vWF[764-1270]-8His S766Y-K773T (other)
chain: SLYCRPPMVTLVCPADNLRAEGLECTKTCQNYDLECMSMGCVSGCLCPPGMVRHENRCVALERCPCFHQGKEYAPGETVKIGCNTCVCRDRKWNCTDHVCDATCSTIGMAHYLTFDGLKYLFPGECQYVLVQDYCGSNPGTFRILVGNKGCSHPSVKCKKRVTILVEGGEIELFDGEVNVKRPMKDETHFEVVESGRYIILLLGKALSVVWDRHLSISVVLKQTYQEKVCGLCGNFDGIQNNDLTSSNLQVEEDPVDFGNSWKVSSQCADTRKVPLDSSPATCHNNIMKQTMVDSSCRILTSDVFQDCNKLVDPEPYLDVCIYDTCSCESIGDCACFCDTIAAYAHVCAQHGKVVTWRTATLCPQSCEERNLRENGYECEWRYNSCAPACQVTCQHPEPLACPVQCVEGCHAHCPPGKILDELLQTCVDPEDCPVCEVAGRRFASGKKVTLNPSDPEHCQICHCDVVNLTCEACQEPGGLVVPPTDAPVSPTTLYVEDISEPPLHDFHHHHHHHH
B4: Hu-vWF[764-1270]-8His S766Y-K773Y (other)
chain: SLYCRPPMVYLVCPADNLRAEGLECTKTCQNYDLECMSMGCVSGCLCPPGMVRHENRCVALERCPCFHQGKEYAPGETVKIGCNTCVCRDRKWNCTDHVCDATCSTIGMAHYLTFDGLKYLFPGECQYVLVQDYCGSNPGTFRILVGNKGCSHPSVKCKKRVTILVEGGEIELFDGEVNVKRPMKDETHFEVVESGRYIILLLGKALSVVWDRHLSISVVLKQTYQEKVCGLCGNFDGIQNNDLTSSNLQVEEDPVDFGNSWKVSSQCADTRKVPLDSSPATCHNNIMKQTMVDSSCRILTSDVFQDCNKLVDPEPYLDVCIYDTCSCESIGDCACFCDTIAAYAHVCAQHGKVVTWRTATLCPQSCEERNLRENGYECEWRYNSCAPACQVTCQHPEPLACPVQCVEGCHAHCPPGKILDELLQTCVDPEDCPVCEVAGRRFASGKKVTLNPSDPEHCQICHCDVVNLTCEACQEPGGLVVPPTDAPVSPTTLYVEDISEPPLHDFHHHHHHHH
B5: Hu-vWF[764-1270]-8His S766Y-K773Q (other)
chain: SLYCRPPMVQLVCPADNLRAEGLECTKTCQNYDLECMSMGCVSGCLCPPGMVRHENRCVALERCPCFHQGKEYAPGETVKIGCNTCVCRDRKWNCTDHVCDATCSTIGMAHYLTFDGLKYLFPGECQYVLVQDYCGSNPGTFRILVGNKGCSHPSVKCKKRVTILVEGGEIELFDGEVNVKRPMKDETHFEVVESGRYIILLLGKALSVVWDRHLSISVVLKQTYQEKVCGLCGNFDGIQNNDLTSSNLQVEEDPVDFGNSWKVSSQCADTRKVPLDSSPATCHNNIMKQTMVDSSCRILTSDVFQDCNKLVDPEPYLDVCIYDTCSCESIGDCACFCDTIAAYAHVCAQHGKVVTWRTATLCPQSCEERNLRENGYECEWRYNSCAPACQVTCQHPEPLACPVQCVEGCHAHCPPGKILDELLQTCVDPEDCPVCEVAGRRFASGKKVTLNPSDPEHCQICHCDVVNLTCEACQEPGGLVVPPTDAPVSPTTLYVEDISEPPLHDFHHHHHHHH
B6: Hu-vWF[764-1270]-8His S766Y-K773R (other)
chain: SLYCRPPMVRLVCPADNLRAEGLECTKTCQNYDLECMSMGCVSGCLCPPGMVRHENRCVALERCPCFHQGKEYAPGETVKIGCNTCVCRDRKWNCTDHVCDATCSTIGMAHYLTFDGLKYLFPGECQYVLVQDYCGSNPGTFRILVGNKGCSHPSVKCKKRVTILVEGGEIELFDGEVNVKRPMKDETHFEVVESGRYIILLLGKALSVVWDRHLSISVVLKQTYQEKVCGLCGNFDGIQNNDLTSSNLQVEEDPVDFGNSWKVSSQCADTRKVPLDSSPATCHNNIMKQTMVDSSCRILTSDVFQDCNKLVDPEPYLDVCIYDTCSCESIGDCACFCDTIAAYAHVCAQHGKVVTWRTATLCPQSCEERNLRENGYECEWRYNSCAPACQVTCQHPEPLACPVQCVEGCHAHCPPGKILDELLQTCVDPEDCPVCEVAGRRFASGKKVTLNPSDPEHCQICHCDVVNLTCEACQEPGGLVVPPTDAPVSPTTLYVEDISEPPLHDFHHHHHHHH
B7: Hu-vWF[764-1270]-8His S766Y-K773W (other)
chain: SLYCRPPMVWLVCPADNLRAEGLECTKTCQNYDLECMSMGCVSGCLCPPGMVRHENRCVALERCPCFHQGKEYAPGETVKIGCNTCVCRDRKWNCTDHVCDATCSTIGMAHYLTFDGLKYLFPGECQYVLVQDYCGSNPGTFRILVGNKGCSHPSVKCKKRVTILVEGGEIELFDGEVNVKRPMKDETHFEVVESGRYIILLLGKALSVVWDRHLSISVVLKQTYQEKVCGLCGNFDGIQNNDLTSSNLQVEEDPVDFGNSWKVSSQCADTRKVPLDSSPATCHNNIMKQTMVDSSCRILTSDVFQDCNKLVDPEPYLDVCIYDTCSCESIGDCACFCDTIAAYAHVCAQHGKVVTWRTATLCPQSCEERNLRENGYECEWRYNSCAPACQVTCQHPEPLACPVQCVEGCHAHCPPGKILDELLQTCVDPEDCPVCEVAGRRFASGKKVTLNPSDPEHCQICHCDVVNLTCEACQEPGGLVVPPTDAPVSPTTLYVEDISEPPLHDFHHHHHHHH
B8: Hu-vWF[764-1270]-8His S766Y-K773V (other)
chain: SLYCRPPMVVLVCPADNLRAEGLECTKTCQNYDLECMSMGCVSGCLCPPGMVRHENRCVALERCPCFHQGKEYAPGETVKIGCNTCVCRDRKWNCTDHVCDATCSTIGMAHYLTFDGLKYLFPGECQYVLVQDYCGSNPGTFRILVGNKGCSHPSVKCKKRVTILVEGGEIELFDGEVNVKRPMKDETHFEVVESGRYIILLLGKALSVVWDRHLSISVVLKQTYQEKVCGLCGNFDGIQNNDLTSSNLQVEEDPVDFGNSWKVSSQCADTRKVPLDSSPATCHNNIMKQTMVDSSCRILTSDVFQDCNKLVDPEPYLDVCIYDTCSCESIGDCACFCDTIAAYAHVCAQHGKVVTWRTATLCPQSCEERNLRENGYECEWRYNSCAPACQVTCQHPEPLACPVQCVEGCHAHCPPGKILDELLQTCVDPEDCPVCEVAGRRFASGKKVTLNPSDPEHCQICHCDVVNLTCEACQEPGGLVVPPTDAPVSPTTLYVEDISEPPLHDFHHHHHHHH

Molecular target: T1, recombinant Factor VIII (CSL627, rVIII-SingleChain) (Homo sapiens (Human), UniProt P00451 20-2351)
T1 construct: also called FVIII
T1 sequence: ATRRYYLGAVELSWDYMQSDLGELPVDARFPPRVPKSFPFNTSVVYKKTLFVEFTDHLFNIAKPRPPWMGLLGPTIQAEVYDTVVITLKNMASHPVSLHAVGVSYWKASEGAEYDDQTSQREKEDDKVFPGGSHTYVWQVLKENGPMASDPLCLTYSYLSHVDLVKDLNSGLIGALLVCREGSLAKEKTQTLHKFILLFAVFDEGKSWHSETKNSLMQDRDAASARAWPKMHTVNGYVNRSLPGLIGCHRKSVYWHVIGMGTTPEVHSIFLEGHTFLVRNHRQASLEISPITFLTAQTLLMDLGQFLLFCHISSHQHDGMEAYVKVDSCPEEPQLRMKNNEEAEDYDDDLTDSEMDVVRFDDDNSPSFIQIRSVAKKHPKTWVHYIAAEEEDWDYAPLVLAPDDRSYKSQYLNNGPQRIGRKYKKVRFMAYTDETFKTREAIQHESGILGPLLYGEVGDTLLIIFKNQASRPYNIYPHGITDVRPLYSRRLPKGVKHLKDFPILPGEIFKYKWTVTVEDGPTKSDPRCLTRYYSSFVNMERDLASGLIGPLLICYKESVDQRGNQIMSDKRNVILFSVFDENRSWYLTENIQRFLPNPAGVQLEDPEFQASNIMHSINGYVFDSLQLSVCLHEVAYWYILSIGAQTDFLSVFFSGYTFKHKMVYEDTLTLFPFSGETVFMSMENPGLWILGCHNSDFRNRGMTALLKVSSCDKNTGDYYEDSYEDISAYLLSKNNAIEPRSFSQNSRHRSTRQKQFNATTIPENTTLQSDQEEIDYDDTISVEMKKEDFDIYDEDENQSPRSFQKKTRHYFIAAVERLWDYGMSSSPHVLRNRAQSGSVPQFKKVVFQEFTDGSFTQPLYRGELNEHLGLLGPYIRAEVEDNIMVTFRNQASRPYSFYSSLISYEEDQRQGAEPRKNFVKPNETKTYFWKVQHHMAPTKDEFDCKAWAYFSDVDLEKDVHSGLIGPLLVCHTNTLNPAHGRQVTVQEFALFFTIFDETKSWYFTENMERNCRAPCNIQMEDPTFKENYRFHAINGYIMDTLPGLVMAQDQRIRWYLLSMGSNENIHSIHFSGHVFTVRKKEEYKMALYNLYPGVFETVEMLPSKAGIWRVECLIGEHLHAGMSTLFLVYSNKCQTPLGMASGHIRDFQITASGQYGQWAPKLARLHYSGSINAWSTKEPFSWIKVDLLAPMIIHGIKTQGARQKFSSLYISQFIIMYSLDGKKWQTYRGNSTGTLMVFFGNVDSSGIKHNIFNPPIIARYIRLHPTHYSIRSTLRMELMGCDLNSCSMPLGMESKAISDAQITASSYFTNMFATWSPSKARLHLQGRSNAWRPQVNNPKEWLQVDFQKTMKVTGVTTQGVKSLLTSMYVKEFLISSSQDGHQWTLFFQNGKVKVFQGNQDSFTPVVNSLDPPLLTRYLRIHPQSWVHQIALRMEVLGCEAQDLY
Assay: SPR, anti-His capture
Method: Binding kinetics were investigated by surface plasmon resonance using a Biacore 4000 biosensor at 37° C. Each mutant was captured from cell culture medium to a density of 40-150 RU on a CM-5 sensor chip pre-immobilised with anti-His antibody (14,000 RU). In an initial screening study, FVIII was injected over the captured mutants for 5 minutes at 1 nM and dissociation monitored for 5 minutes.
All sensorgrams were double referenced by subtraction of signals from a reference spot (containing only immobilised anti His antibody) and from a blank injection. Binding kinetics were determined by fitting the double referenced sensorgrams to a 1:1 kinetic model.

Binder	Kd	koff	kon
B1	0.112 nM	0.00243 s⁻¹	2.16e+07 M⁻¹ s⁻¹
B2	0.0785 nM	0.00138 s⁻¹	1.75e+07 M⁻¹ s⁻¹
B3	0.0224 nM	0.000269 s⁻¹	1.2e+07 M⁻¹ s⁻¹
B4	0.18 nM	0.00404 s⁻¹	2.24e+07 M⁻¹ s⁻¹
B5	0.0393 nM	0.000939 s⁻¹	2.39e+07 M⁻¹ s⁻¹
B6	0.0335 nM	0.000469 s⁻¹	1.4e+07 M⁻¹ s⁻¹
B7	0.134 nM	0.00393 s⁻¹	2.93e+07 M⁻¹ s⁻¹
B8	0.0494 nM	0.000861 s⁻¹	1.74e+07 M⁻¹ s⁻¹
